In patent US11230581B2, “Peptides and combination of peptides for use in immunotherapy against ovarian cancer and other cancers” (Immatics Biotechnologies GmbH, priority 2015, dated 2022):

molecular target: HLA-A*02:01 (Homo sapiens, UniProt P04439, D140Y/D185E/D98H/E176V/E277Q/G131W/G231S/I119V/I121R/I166T/I218V/L300P/L318F/N151K/N90K/P208A/P217A/Q86G/Q94H/R138H/R169H/T345S); assay: MHC binding assay (UV-ligand exchange, β2m ELISA, peptide exchange yield); conditions: binding of HLA-class I restricted peptides to HLA-A*02:01, UV-ligand exchange
Outline: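 Peptide-MHC complexes formed by UV-ligand exchange, cleaving a UV-sensitive placeholder peptide in favour of the test peptide. Exchange yield measured by ELISA: monomers diluted 100-fold onto streptavidin-coated plates, 1 h 37 °C, detected with 2 ug/ml HRP anti-β2m and TMB, absorbance at 450 nm.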

Substance | Peptide exchange (MHC class I binding score, peptide exchange yield)
130 (FLWNGEDSALL; listed as Homo sapiens) [compound 130] | “+++” (≥50 = +++)
288 (NLINEINGV; listed as Homo sapiens) [compound 288] | “+++” (≥50 = +++)
75 (GLLEVMVNL; listed as Homo sapiens) [compound 75] | “+++” (≥50 = +++)
595 (VLLSIYPRV; listed as Homo sapiens) [compound 595] | “+++” (≥50 = +++)
612 (YLYNEGLSV; listed as Homo sapiens) [compound 612] | “+++” (≥50 = +++)
330 (QLALKVEGV; listed as Homo sapiens) [compound 330] | “+++” (≥50 = +++)
519 (GLLHLTLLL; listed as Homo sapiens) [compound 519] | “+++” (≥50 = +++)
397 (YLFGERLLEC; listed as Homo sapiens) [compound 397] | “+++” (≥50 = +++)
580 (LLMENAERV; listed as Homo sapiens) [compound 580] | “++” (≥20% = ++)
152 (ILFEDIFDV; listed as Homo sapiens) [compound 152] | “+++” (≥50 = +++)
12 (SLWPDPMEV; listed as Homo sapiens) [compound 12] | “+++” (≥50 = +++)
539 (ALFDAQAQV; listed as Homo sapiens) [compound 539] | “+++” (≥50 = +++)
207 (GLTSTNAEV; listed as Homo sapiens) [compound 207] | “++” (≥20% = ++)
522 (TLWYRSPEV; listed as Homo sapiens) [compound 522] | “++” (≥20% = ++)
170 (RLQETLSAA; listed as Homo sapiens) [compound 170] | “+++” (≥50 = +++)
220 (LLQKFVPEI; listed as Homo sapiens) [compound 220] | “++” (≥20% = ++)
27 (ILADIVISA; listed as Homo sapiens) [compound 27] | “+++” (≥50 = +++)
201 (RLVDYLEGI; listed as Homo sapiens) [compound 201] | “+++” (≥50 = +++)
225 (SLLKVLPAL; listed as Homo sapiens) [compound 225] | “+++” (≥50 = +++)
299 (YLLETSGNL; listed as Homo sapiens) [compound 299] | “+++” (≥50 = +++)
564 (TVTNAVVTV; listed as Homo sapiens) [compound 564] | “+++” (≥50 = +++)
197 (ALGPEGGRV; listed as Homo sapiens) [compound 197] | “++” (≥20% = ++)
459 (ALITEVVRL; listed as Homo sapiens) [compound 459] | “++” (≥20% = ++)

Substance | Peptide exchange (MHC class I binding score, peptide exchange yield)
196 (YLYSVEIKL; listed as Homo sapiens) [compound 196] | “++++” (≥75% = ++++)
489 (KMWEELPEVV; listed as Homo sapiens) [compound 489] | “+++” (≥50 = +++)
407 (YLMDLINFL; listed as Homo sapiens) [compound 407] | “+++” (≥50 = +++)
610 (LLAPTPYIIGV; listed as Homo sapiens) [compound 610] | “+++” (≥50 = +++)
153 (FLIANVLYL; listed as Homo sapiens) [compound 153] | “+” (≥10% = +)
248 (FLFPNQYVDV; listed as Homo sapiens) [compound 248] | “+++” (≥50 = +++)
279 (ALWGGTQPLL; listed as Homo sapiens) [compound 279] | “++” (≥20% = ++)
447 (QLVPALAKV; listed as Homo sapiens) [compound 447] | “++” (≥20% = ++)
278 (QLLDVVLTI; listed as Homo sapiens) [compound 278] | “++” (≥20% = ++)
442 (GLLGGGGVLGV; listed as Homo sapiens) [compound 442] | “+++” (≥50 = +++)
1 (SLMEPPAVLLL; listed as Homo sapiens) [compound 1] | “+++” (≥50 = +++)
327 (GLAPFTEGISFV; listed as Homo sapiens) [compound 327] | “+++” (≥50 = +++)
390 (ALFMKQIYL; listed as Homo sapiens) [compound 390] | “+++” (≥50 = +++)
212 (ALWDQDNLSV; listed as Homo sapiens) [compound 212] | “++” (≥20% = ++)
198 (KTINKVPTV; listed as Homo sapiens) [compound 198] | “+++” (≥50 = +++)
511 (FLDPYCSASV; listed as Homo sapiens) [compound 511] | “++” (≥20% = ++)
456 (LLIGHLERV; listed as Homo sapiens) [compound 456] | “+++” (≥50 = +++)
341 (SQIALNEKLVNL; listed as Homo sapiens) [compound 341] | “+++” (≥50 = +++)
23 (VLLDDIFAQL; listed as Homo sapiens) [compound 23] | “+++” (≥50 = +++)
386 (ILFRYPLTI; listed as Homo sapiens) [compound 386] | “+++” (≥50 = +++)
295 (VLDRESPNV; listed as Homo sapiens) [compound 295] | “+++” (≥50 = +++)
393 (GLLDTQTSQVLTA; listed as Homo sapiens) [compound 393] | “++” (≥20% = ++)
236 (GLLEAKVSL; listed as Homo sapiens) [compound 236] | “+++” (≥50 = +++)

Substance | Peptide exchange (MHC class I binding score, peptide exchange yield)
286 (YLFPGIPEL; listed as Homo sapiens) [compound 286] | “+++” (≥50 = +++)
334 (TLTKVLVAL; listed as Homo sapiens) [compound 334] | “+++” (≥50 = +++)
523 (YQIPRTFTL; listed as Homo sapiens) [compound 523] | “++” (≥20% = ++)
554 (LLMPSSEDLLL; listed as Homo sapiens) [compound 554] | “+++” (≥50 = +++)
133 (KVLSNIHTV; listed as Homo sapiens) [compound 133] | “++” (≥20% = ++)
176 (YLMEGSYNKVFL; listed as Homo sapiens) [compound 176] | “++” (≥20% = ++)
29 (KMLGIPISNILMV; listed as Homo sapiens) [compound 29] | “+++” (≥50 = +++)
303 (AILPQLFMV; listed as Homo sapiens) [compound 303] | “++++” (≥75% = ++++)
485 (NVPDSFNEV; listed as Homo sapiens) [compound 485] | “+++” (≥50 = +++)
365 (YVIDQGETDVYV; listed as Homo sapiens) [compound 365] | “+++” (≥50 = +++)
399 (YLFEPLYHV; listed as Homo sapiens) [compound 399] | “+++” (≥50 = +++)
158 (KLFDVDEDGYI; listed as Homo sapiens) [compound 158] | “+++” (≥50 = +++)
261 (YVLEFLEEI; listed as Homo sapiens) [compound 261] | “++” (≥20% = ++)
9 (GAAKDLPGV; listed as Homo sapiens) [compound 9] | “++” (≥20% = ++)
322 (TLMTSLPAL; listed as Homo sapiens) [compound 322] | “+++” (≥50 = +++)
545 (LLADLLHNV; listed as Homo sapiens) [compound 545] | “+++” (≥50 = +++)
265 (LLFGGTKTV; listed as Homo sapiens) [compound 265] | “++” (≥20% = ++)
139 (SVMEVNSGIYRV; listed as Homo sapiens) [compound 139] | “+++” (≥50 = +++)
567 (SLLPLDDIVRV; listed as Homo sapiens) [compound 567] | “+++” (≥50 = +++)
430 (HLYSSIEHLTT; listed as Homo sapiens) [compound 430] | “+++” (≥50 = +++)
504 (GLSDGNPSL; listed as Homo sapiens) [compound 504] | “++” (≥20% = ++)
